From patent US20250059285A1 (ARGENX, published 2025)

Legend:
human Gal10-His [1] = target: T1, human Gal10-His (human, UniProt Q05315 2-142, limits assumed); assay: summary of periplasmic extract screening (BLI or SPR); control
T1 construct: also called hGal10-His; human Gal10-His tagged; not shown: His tag
T1 sequence: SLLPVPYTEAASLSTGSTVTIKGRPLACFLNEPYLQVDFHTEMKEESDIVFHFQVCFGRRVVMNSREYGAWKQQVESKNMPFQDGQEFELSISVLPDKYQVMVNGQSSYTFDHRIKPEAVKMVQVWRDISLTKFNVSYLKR

human Gal10-His [2] = target: T1, human Gal10-His; assay: SPR Biacore 3000, purified hFab 20 nM on Gal10-His-coated CM5
human Gal10-His [3] = target: T1, human Gal10-His; assay: BLI Octet RED96, Gal10-His captured on anti-Penta-His tips
human Gal10-His [4] = target: T1, human Gal10-His; assay: SPR Biacore 3000, control on Gal10-His-coated CM5
Method: The off-rate of the remaining 25 clones of the ELISA experiment was determined by SPR on a Biacore 3000 instrument. Periplasmic extracts were injected on a CM5 sensor chip coated with 2500 RU Gal10-His.

human Gal10-His [5] = target: T1, human Gal10-His; assay: SPR Biacore 3000, hFab on human Gal10-His captured by anti-His CM5
Method: (§1) The binding properties of the selected clones to human and cynomolgus Gal10 was analyzed via a capture method established on a Biacore 3000 instrument.
(§2) For this purpose, two approaches were used. In the first, two concentrations of the selected clones were applied on cynomolgus (WGS isoform) Gal10-His capture on a CM5 chip coated with a monoclonal anti-His antibody. The second approach involved a serial dilution that was applied on human or cynomolgus (WGS isoform) Gal10-His in the same set-up.

[6] = target: T2, cynomolgus Gal10-His (WGS isoform) (cynomolgus); assay: SPR Biacore 3000, hFab on cynomolgus Gal10-His (WGS) captured by anti-His CM5
T2 construct: also called cynomolgus antigen
Method: as §1, §2

human Gal10-His [7] = target: T1, human Gal10-His; assay: SPR Biacore 3000, hFab on captured human Gal10-His; column head prints (M), the text gives nM
Method: as §1, §2

[8] = target: T2, cynomolgus Gal10-His (WGS isoform); assay: SPR Biacore 3000, hFab on captured cynomolgus Gal10-His (WGS); column head prints (M), the text gives nM
Method: as §1, §2

human Gal10-His [9] = target: T1, human Gal10-His; assay: SPR Biacore 3000, purified hFab (2 conc.) on Gal10-His captured by anti-His CM5
Method: The binding properties of the selected Fab clones to human Gal10 were analyzed via a capture method established on a Biacore 3000 instrument. Two concentrations of the selected Fab clones were tested on human Gal10-His immobilized on a CM5 chip coated with a monoclonal anti-His. As controls, the clone g7B07 and g7B07_N53A were injected at the beginning and the end of the run. Briefly, a CM5 chip was coated with a monoclonal anti-His antibody (4000 RU), then a fixed concentration of the human Gal10-His (25 μg/mL) was captured on the anti-His chip before receiving two concentrations of the clones in the human Fab backbone.

B1: g7B07 (human Fab) (Fab, V domains shown)
VH: EVQLLESGGGLVQPGGSLRLSCAASGFTFRSYDMSWVRQAPGKGLEWVSAIKNGGGITYYADSVKGRFTISRDNSKNTLYLQMNSLRAEDTAVYYCATTHGIGTLGFGSWGQGTLVTVSS
VL: SYELTQPLSVSVALGQTARITCDGNNIGSKSAQWYQQKPGQAPVLVIYADEYRPEGIPERFSGSNSGNTATLTISRAQAGDEADYYCQVWDGSAAVFGGGTQLTVL
notes: Human Fab backbone; their format is not certain; also called g7B07-hFab; germlined 7B07
kd, fold compared to g7B07 (BLI or SPR) (human Gal10-His [1]): 1 fold | Fold off-rate compared to g7B07 (human Gal10-His [2]): 1 fold | koff (human Gal10-His [2]): 0.0069 s⁻¹ | kd fold difference to reference (human Gal10-His [3]): 1 fold | koff (human Gal10-His [3]): 0.00754 s⁻¹ | Fold off-rate compared to g7B07 (human Gal10-His [4]): 1 fold | koff (human Gal10-His [4]): 0.00218 s⁻¹ | Amplitude R0 (human Gal10-His [5]): 607 RU | koff (human Gal10-His [5]): 0.006 s⁻¹ | kon (human Gal10-His [5]): 670000 M⁻¹ s⁻¹ | Amplitude R0 [6]: 64 RU | koff [6]: 0.13 s⁻¹ | kon [6]: 1.9e+06 M⁻¹ s⁻¹ | Kd (human Gal10-His [7]): 9.08 nM | Kd [8]: 69.5 nM | Kd (human Gal10-His [9]): 11.1 nM | kd-fold drop vs g7B07 (human Gal10-His [9]): 1 fold | koff (human Gal10-His [9]): 0.0047 s⁻¹ | kon (human Gal10-His [9]): 420000 M⁻¹ s⁻¹
